{"source": "paper PMC7714071", "about": "“Interaction of amyloid beta with humanin and acetylcholinesterase is modulated by ATP” (FEBS Open Bio, 2020)", "molecules": {"B1": {"name": "acetylcholinesterase (protein)", "chain": "EGREDAELLVTVRGGRLRGIRLKTPGGPVSAFLGIPFAEPPMGPRRFLPPEPKQPWSGVVDATTFQSVCYQYVDTLYPGFEGTEMWNPNRELSEDCLYLNVWTPYPRPTSPTPVLVWIYGGGFYSGASSLDVYDGRFLVQAERTVLVSMNYRVGAFGFLALPGSREAPGNVGLLDQRLALQWVQENVAAFGGDPTSVTLFGESAGAASVGMHLLSPPSRGLFHRAVLQSGAPNGPWATVGMGEARRRATQLAHLVGCPPGGTGGNDTELVACLRTRPAQVLVNHEWHVLPQESVFRFSFVPVVDGDFLSDTPEALINAGDFHGLQVLVGVVKDEGSYFLVYGAPGFSKDNESLISRAEFLAGVRVGVPQVSDLAAEAVVLHYTDWLHPEDPARLREALSDVVGDHNVVCPVAQLAGRLAAQGARVYAYVFEHRASTLSWPLWMGVPHGYEIEFIFGIPLDPSRNYTAEEKIFAQRLMRYWANFARTGDPNEPRDPKAPQWPPYTAGAQQYVSLDLRPLEVRRGLRAQACAFWNRFLPKLLSATDTLDEAERQWKAEFHRWSSYMVHWKNQFDHYSKQDRCSDL"}}, "test_system": "H1299 cells", "assay": "MTT cell viability, H1299", "format": "cell-based, human", "details": "AChE-ID media, 48 h, H1299; Fig. 7B", "method": "Human NSCLC cell lines, A549 (ATCC CCL‐185) and H1299 (ATCC CRL‐5803), were purchased from the American Type Culture Collection (ATCC, Manassas, VA, USA). Cells were seeded as we reported earlier in 5 mL HyClone Dulbecco's modified Eagle's medium/nutrient mixture F‐12 (DMEM/F12) (GE Healthcare Life Sciences, Pittsburgh, PA, USA), supplemented with 10% Fetalgro bovine growth serum (FBS; RMBIO, Missoula, MT, USA), 50 U·mL^−1 penicillin, and […] streptomycin (Invitrogen, Life Technologies, Carlsbad, CA, USA) in 25‐cm^2 tissue culture flasks, and allowed to grow overnight in an incubator at 37 °C, 95% humidity, and 5% CO2. The cells were counted after trypan blue staining, with a hemocytometer.\nThe 3‐(4,5‐dimethylthiazol‐2‐yl)‐2,5‐diphenyl‐tetrazolium bromide (MTT) reduction assay (Sigma‐Aldrich), used to measure cell viability, was carried out as we reported earlier. […] The absorbance was measured at 570 nm in a plate reader. […]\nConditioned media were immunodepleted (ID) according to the methods previously described and our recently published report. […] The ID media were then carefully removed and analyzed for the presence of the target protein or peptide by ELISA. The same amount of protein (3 µL of 600 µg·mL^−1 total protein) of each sample was analyzed in the experiments. […]", "data": [{"molecule": "B1", "values": [{"measurement": "effect of AChE immunodepletion on cell viability", "result": "no effect"}]}]}
